Reference: publication PMC5974431
Changes are numbered by the printed parent chain. Numbers in names are those of the source.

Target: T1, V1-TRF2, Q15554
T1 chain: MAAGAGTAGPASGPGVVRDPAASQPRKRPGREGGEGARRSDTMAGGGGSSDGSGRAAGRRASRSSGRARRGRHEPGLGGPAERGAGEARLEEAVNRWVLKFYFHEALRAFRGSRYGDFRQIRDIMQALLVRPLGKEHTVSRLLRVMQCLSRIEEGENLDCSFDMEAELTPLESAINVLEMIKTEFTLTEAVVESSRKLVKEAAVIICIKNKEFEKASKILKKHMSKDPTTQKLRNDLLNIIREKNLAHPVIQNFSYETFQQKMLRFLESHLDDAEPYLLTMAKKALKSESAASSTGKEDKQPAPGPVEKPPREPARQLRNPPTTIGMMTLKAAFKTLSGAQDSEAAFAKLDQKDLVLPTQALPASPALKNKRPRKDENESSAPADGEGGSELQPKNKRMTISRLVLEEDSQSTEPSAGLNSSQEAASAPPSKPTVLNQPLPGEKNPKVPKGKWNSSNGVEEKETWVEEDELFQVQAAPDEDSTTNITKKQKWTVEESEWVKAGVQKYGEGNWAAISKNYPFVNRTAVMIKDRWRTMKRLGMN
Experiment: protein fragment complementation assay (PCA), split Venus
Details: chain shown with the change; coexpression by cotransfection; three separate transfections each measured in triplicate; parent: est. 12500; read off a plot

B1: TIN2L-V2, Q9BSI4-1 R282H (protein)
chain: MATPLVAGPAALRFAAAASWQVVRGRCVEHFPRVLEFLRSLRAVAPGLVRYRHHERLCMGLKAKVVVELILQGRPWAQVLKALNHHFPESGPIVRDPKATKQDLRKILEAQETFYQQVKQLSEAPVDLASKLQELEQEYGEPFLAAMEKLLFEYLCQLEKALPTPQAQQLQDVLSWMQPGVSITSSLAWRQYGVDMGWLLPECSVTDSVNLAEPMEQNPPQQQRLALHNPLPKAKPGTHLPQGPSSRTHPEPLAGRHFNLAPLGRRRVQSQWASTRGGHKEHPTVMLFPFRNLGSPTQVISKPESKEEHAIYTADLAMGTRAASTGKSKSPCQTLGGRALKENPVDLPATEQKENCLDCYMDPLRLSLLPPRARKPVCPPSLCSSVITIGDLVLDSDEEENGQGEGKESLENYQKTKFDTLIPTLCEYLPPSGHGAIPVSSCDCRDSSRPL
response (fluorescence activity minus background): 5900

B2: TIN2L-V2, Q9BSI4-1 D391K; D395K (protein)
chain: B1 chain with H282R, D391K, D395K
response (fluorescence activity minus background): 5700
